According to the supplement of paper PMC5998384:

Key:
[1] = tested on: HeLa Kyoto; test: thermal stability score vs G1/S (z-score of summed log2 fold changes over temperatures); higher = more thermally stable than in G1/S
[2] = tested on: HeLa Kyoto; test: solubility change mitosis vs G1/S (difference of NP-40 vs SDS log2 ratios) (log2 ratio difference); higher = more soluble in mitosis
[3] = tested on: HeLa Kyoto; test: melting temperature (median over replicates), in situ; higher = more thermally stable
[4] = tested on: HeLa Kyoto; test: solubility in G1/S (NP-40 vs SDS abundance) (log2 ratio); higher = more soluble; settings: cell cycle stage: G1/S
[5] = cell cycle stage: early G1 (4.5 h after nocodazole release)
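Throughout, for melting temperature (median over replicates), in situ: HeLa Kyoto cells synchronized by double thymidine or nocodazole block, proteins quantified by TMT10plex mass spectrometry, three independent biological replicates.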
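Throughout, for solubility change mitosis vs G1/S (difference of NP-40 vs SDS log2 ratios): synchronized HeLa Kyoto cells (double thymidine block for G1/S, nocodazole release for mitosis), protein amounts in NP-40 versus SDS lysates quantified by mass spectrometry, three biological replicates.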
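Throughout, for solubility in G1/S (NP-40 vs SDS abundance): HeLa Kyoto cells arrested at G1/S by double thymidine block, proteins quantified by TMT10plex mass spectrometry in mild NP-40 versus SDS extracts, three biological replicates.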
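Throughout, for thermal stability score vs G1/S (z-score of summed log2 fold changes over temperatures): synchronized HeLa Kyoto cells, proteins quantified by TMT10plex mass spectrometry, three biological replicates, mitosis taken 0.5 h after nocodazole release, G1/S directly after double thymidine block.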

Row | Substance | thermal stability score [1, 5] | thermal stability score ([1]; cell cycle stage: mitosis) | solubility change mitosis (log2) [2] | melting temperature ([3]; cell cycle stage: G1/S) | melting temperature ([3]; cell cycle stage: mitosis) | solubility in G1/S (log2) [4]
1 | MWIQVRTMDGRQTHTVDSLSRLTKVEELRRKIQELFHVEPGLQRLFYRGKQMEDGHTLFDYEVRLNDTIQLLVRQSLVLPHSTKERDSELSDTDSGCCLGQSESDKSSTHGEAAAETDSRPADEDMWDETELGLYKVNEYVDARDTNMGAWFEAQVVRVTRKAPSRDEPCSSTSRPALEEDVIYHVKYDDYPENGVVQMNSRDVRARARTIIKWQDLEVGQVVMLNYNPDNPKERGFWYDAEISRKRETRTARELYANVVLGDDSLNDCRIIFVDEVFKIERPGEGSPMVDNPMRRKSGPSCKHCKDDVNRLCRVCACHLCGGRQDPDKQLMCDECDMAFHIYCLDPPLSSVPSEDEWYCPECRNDASEVVLAGERLRESKKKAKMASATSSSQRDWGKGMACVGRTKECTIVPSNHYGPIPGIPVGTMWRFRVQVSESGVHRPHVAGIHGRSNDGAYSLVLAGGYEDDVDHGNFFTYTGSGGRDLSGNKRTAEQSCDQKLTNTNRALALNCFAPINDQEGAEAKDWRSGKPVRVVRNVKGGKNSKYAPAEGNRYDGIYKVVKYWPEKGKSGFLVWRYLLRRDDDEPGPWTKEGKDRIKKLGLTMQYPEGYLEALANREREKENSKREEEEQQEGGFASPRTGKGKWKRKSAGGGPSRAGSPRRTSKKTKVEPYSLTAQQSSLIREDKSNAKLWNEVLASLKDRPASGSPFQLFLSKVEETFQCICCQELVFRPITTVCQHNVCKDCLDRSFRAQVFSCPACRYDLGRSYAMQVNQPLQTVLNQLFPGYGNGR [UHRF1] | 4.54 | 8.25 | 0.3 | 45.8 °C | 48.3 °C | -0.563
2 | MEDRLHMDNGLVPQKIVSVHLQDSTLKEVKDQVSNKQAQILEPKPEPSLEIKPEQDGMEHVGRDDPKALGEEPKQRRGSASGSEPAGDSDRGGGPVEHYHLHLSSCHECLELENSTIESVKFASAENIPDLPYDYSSSLESVADETSPEREGRRVNLTGKAPNILLYVGSDSQEALGRFHEVRSVLADCVDIDSYILYHLLEDSALRDPWTDNCLLLVIATRESIPEDLYQKFMAYLSQGGKVLGLSSSFTFGGFQVTSKGALHKTVQNLVFSKADQSEVKLSVLSSGCRYQEGPVRLSPGRLQGHLENEDKDRMIVHVPFGTRGGEAVLCQVHLELPPSSNIVQTPEDFNLLKSSNFRRYEVLREILTTLGLSCDMKQVPALTPLYLLSAAEEIRDPLMQWLGKHVDSEGEIKSGQLSLRFVSSYVSEVEITPSCIPVVTNMEAFSSEHFNLEIYRQNLQTKQLGKVILFAEVTPTTMRLLDGLMFQTPQEMGLIVIAARQTEGKGRGGNVWLSPVGCALSTLLISIPLRSQLGQRIPFVQHLMSVAVVEAVRSIPEYQDINLRVKWPNDIYYSDLMKIGGVLVNSTLMGETFYILIGCGFNVTNSNPTICINDLITEYNKQHKAELKPLRADYLIARVVTVLEKLIKEFQDKGPNSVLPLYYRYWVHSGQQVHLGSAEGPKVSIVGLDDSGFLQVHQEGGEVVTVHPDGNSFDMLRNLILPKRR [HLCS] | -0.0478 | 0.641 | -0.216 | 50.8 °C | 51 °C | -0.0872
3 | MENSTTTISREELEELQEAFNKIDIDNSGYVSDYELQDLFKEASLPLPGYKVREIVEKILSVADSNKDGKISFEEFVSLMQELKSKDISKTFRKIINKREGITAIGGTSTISSEGTQHSYSEEEKVAFVNWINKALENDPDCKHLIPMNPNDDSLFKSLADGILLCKMINLSEPDTIDERAINKKKLTPFTISENLNLALNSASAIGCTVVNIGASDLKEGKPHLVLGLLWQIIKVGLFADIEISRNEALIALLNEGEELEELMKLSPEELLLRWVNYHLTNAGWHTISNFSQDIKDSRAYFHLLNQIAPKGGEDGPAIAIDLSGINETNDLKRAGLMLQEADKLGCKQFVTPADVVSGNPKLNLAFVANLFNTYPCLHKPNNNDIDMNLLEGESKEERTFRNWMNSLGVNPYINHLYSDLADALVIFQLYEMIRVPVNWSHVNKPPYPALGGNMKKIENCNYAVELGKNKAKFSLVGIAGQDLNEGNSTLTLALVWQLMRRYTLNVLSDLGEGEKVNDEIIIKWVNQTLKSANKKTSISSFKDKSISTSLPVLDLIDAIAPNAVRQEMIRRENLSDEDKLNNAKYAISVARKIGARIYALPDDLVEVKPKMVMTVFACLMGKGLNRIK [PLS1] | 0.863 | 0.264 | -0.0585 | 52.6 °C | 53.7 °C | 0.301
4 | MTTETGPDSEVKKAQEEAPQQPEAAAAVTTPVTPAGHGHPEANSNEKHPSQQDTRPAEQSLDMEEKDYSEADGLSERTTPSKAQKSPQKIAKKYKSAICRVTLLDASEYECEVEKHGRGQVLFDLVCEHLNLLEKDYFGLTFCDADSQKNWLDPSKEIKKQIRSSPWNFAFTVKFYPPDPAQLTEDITRYYLCLQLRADIITGRLPCSFVTHALLGSYAVQAELGDYDAEEHVGNYVSELRFAPNQTRELEERIMELHKTYRGMTPGEAEIHFLENAKKLSMYGVDLHHAKDSEGIDIMLGVCANGLLIYRDRLRINRFAWPKILKISYKRSNFYIKIRPGEYEQFESTIGFKLPNHRSAKRLWKVCIEHHTFFRLVSPEPPPKGFLVMGSKFRYSGRTQAQTRQASALIDRPAPFFERSSSKRYTMSRSLDGAEFSRPASVSENHDAGPDGDKRDEDGESGGQRSEAEEGEVRTPTKIKELKPEQETTPRHKQEFLDKPEDVLLKHQASINELKRTLKEPNSKLIHRDRDWERERRLPSSPASPSPKGTPEKANERAGLREGSEEKVKPPRPRAPESDTGDEDQDQERDTVFLKDNHLAIERKCSSITVSSTSSLEAEVDFTVIGDYHGSAFEDFSRSLPELDRDKSDSDTEGLLFSRDLNKGAPSQDDESGGIEDSPDRGACSTPDMPQFEPVKTETMTVSSLAIRKKIEPEAVLQTRVSAMDNTQQVDGSASVGREFIATTPSITTETISTTMENSLKSGKGAAAMIPGPQTVATEIRSLSPIIGKDVLTSTYGATAETLSTSTTTHVTKTVKGGFSETRIEKRIIITGDEDVDQDQALALAIKEAKLQHPDMLVTKAVVYRETDPSPEERDKKPQES [EPB41L1] | 0.332 | 0.235 | -0.0516 | 49.6 °C | 50 °C | -0.0349
5 | MAGRSMQAARCPTDELSLTNCAVVNEKDFQSGQHVIVRTSPNHRYTFTLKTHPSVVPGSIAFSLPQRKWAGLSIGQEIEVSLYTFDKAKQCIGTMTIEIDFLQKKSIDSNPYDTDKMAAEFIQQFNNQAFSVGQQLVFSFNEKLFGLLVKDIEAMDPSILKGEPATGKRQKIEVGLVVGNSQVAFEKAENSSLNLIGKAKTKENRQSIINPDWNFEKMGIGGLDKEFSDIFRRAFASRVFPPEIVEQMGCKHVKGILLYGPPGCGKTLLARQIGKMLNAREPKVVNGPEILNKYVGESEANIRKLFADAEEEQRRLGANSGLHIIIFDEIDAICKQRGSMAGSTGVHDTVVNQLLSKIDGVEQLNNILVIGMTNRPDLIDEALLRPGRLEVKMEIGLPDEKGRLQILHIHTARMRGHQLLSADVDIKELAVETKNFSGAELEGLVRAAQSTAMNRHIKASTKVEVDMEKAESLQVTRGDFLASLENDIKPAFGTNQEDYASYIMNGIIKWGDPVTRVLDDGELLVQQTKNSDRTPLVSVLLEGPPHSGKTALAAKIAEESNFPFIKICSPDKMIGFSETAKCQAMKKIFDDAYKSQLSCVVVDDIERLLDYVPIGPRFSNLVLQALLVLLKKAPPQGRKLLIIGTTSRKDVLQEMEMLNAFSTTIHVPNIATGEQLLEALELLGNFKDKERTTIAQQVKGKKVWIGIKKLLMLIEMSLQMDPEYRVRKFLALLREEGASPLDFD [NSF] | 0.564 | 0.772 | -0.153 | 49.8 °C | 49.6 °C | 0.236
6 | MAAAAGDADDEPRSGHSSSEGECAVAPEPLTDAEGLFSFADFGSALGGGGAGLSGRASGGAQSPLRYLHVLWQQDAEPRDELRCKIPAGRLRRAARPHRRLGPTGKEVHALKRLRDSANANDVETVQQLLEDGADPCAADDKGRTALHFASCNGNDQIVQLLLDHGADPNQRDGLGNTPLHLAACTNHVPVITTLLRGGARVDALDRAGRTPLHLAKSKLNILQEGHAQCLEAVRLEVKQIIHMLREYLERLGQHEQRERLDDLCTRLQMTSTKEQVDEVTDLLASFTSLSLQMQSMEKR [ANKRD54] | 0.324 | 3.1 | -0.169 | 51 °C |  | 0.0925
7 | MAPQVWRRRTLERCLTEVGKATGRPECFLTIQEGLASKFTSLTKVLYDFNKILENGRIHGSPLQKLVIENFDDEQIWQQLELQNEPILQYFQNAVSETINDEDISLLPESEEQEREEDGSEIEADDKEDLEDLEEEEVSDMGNDDPEMGERAENSSKSDLRKSPVFSDEDSDLDFDISKLEQQSKVQNKGQGKPREKSIVDDKFFKLSEMEAYLENIEKEEERKDDNDEEEEDIDFFEDIDSDEDEGGLFGSKKLKSGKSSRNLKYKDFFDPVESDEDITNVHDDELDSNKEDDEIAEEEAEELSISETDEDDDLQENEDNKQHKESLKRVTFALPDDAETEDTGVLNVKKNSDEVKSSFEKRQEKMNEKIASLEKELLEKKPWQLQGEVTAQKRPENSLLEETLHFDHAVRMAPVITEETTLQLEDIIKQRIRDQAWDDVVRKEKPKEDAYEYKKRLTLDHEKSKLSLAEIYEQEYIKLNQQKTAEEENPEHVEIQKMMDSLFLKLDALSNFHFIPKPPVPEIKVVSNLPAITMEEVAPVSVSDAALLAPEEIKEKNKAGDIKTAAEKTATDKKRERRKKKYQKRMKIKEKEKRRKLLEKSSVDQAGKYSKTVASEKLKQLTKTGKASFIKDEGKDKALKSSQAFFSKLQDQVKMQINDAKKTEKKKKKRQDISVHKLKL [MPHOSPH10] | 3.5 | 1.06 | 1.06 | 52.4 °C | 52.4 °C | -2.07
8 | NAV1 | 1.35 | 2.83 | 0.0198 | 47.2 °C | 49 °C | -0.141
9 | MSECGGRGGGSSSSEDAEDEGGGGGGPAGSDCLSSSPTLATASSAGRLRRGLRGAFLMARQRPELLCGAVALGCALLLALKFTCSRAKDVIIPAKPPVSFFSLRSPVLDLFQGQLDYAEYVRRDSEVVLLFFYAPWCGQSIAARAEIEQAASRLSDQVLFVAINCWWNQGKCRKQKHFFYFPVIYLYHRSFGPIEYKGPMSAVYIEKFVRRVMKPLLYIPSQSELLDFLSNYEPGVLGYFEFSGSPQPPGYLTFFTSALHSLKKALESTSSPRALVSFTGEWHLETKIYVLDYLGTVRFGVITNKHLAKLVSLVHSGSVYLHRHFNTSLVFPREVLNYTAENICKWALENQETLFRWLRPHGGKSLLLNNELKKGPALFLFIPFNPLAESHPLIDEITEVALEYNNCHGDQVVERLLQHLRRVDAPVLESLALEVPAQLPDPPTITASPCCNTVVLPQWHSFSRTHNVCELCVNQTSGGMKPSSVSVPQCSFFEMAAALDSFYLKEQTFYHVASDSIECSNFLTSYSPFSYYTACCRTISRGVSGFIDSEQGVFEAPTVAFSSLEKKCEVDAPSSVPHIEENRYLFPEVDMTSTNFTGLSCRTNKTLNIYLLDSNLFWLYAERLGAPSSTQVKEFAAIVDVKEESHYILDPKQALMKLTLESFIQNFSVLYSPLKRHLIGSGSAQFPSQHLITEVTTDTFWEVVLQKQDVLLLYYAPWCGFCPSLNHIFIQLARNLPMDTFTVARIDVSQNDLPWEFMVDRLPTVLFFPCNRKDLSVKYPEDVPITLPNLLRFILHHSDPASSPQNVANSPTKECLQSEAVLQRGHISHLEREIQKLRAEISSLQRAQVQVESQLSSARRDEHRLRQQQRALEEQHSLLHAHSEQLQALYEQKTRELQELARKLQELADASENLLTENTWLKILVATMERKLEGRDGAESLAAQREVHPKQPEPSATPQLPGSSPPPANVSATLVSERNKENRTD [TXNDC11] | 0.926 | 2.27 | -0.134 | 53.5 °C |  | -0.00943
